Assay results published in patent US10314894B2, “Treatment of cardio-renal disease using PCSK6” (THE CLEVELAND CLINIC FOUNDATION, priority 2014, dated 2019).

Legend:
corin WT = molecular target: T1, corin WT (Homo sapiens, UniProt Q9Y5Q5); assay: PCSK6-mediated corin activation in HEK293 cells, corin WT; assay type: cell-based; details: Western
T1 construct: expressed in transfected cells; host or cells: HEK293
T1 sequence (Q9Y5Q5 1-1042): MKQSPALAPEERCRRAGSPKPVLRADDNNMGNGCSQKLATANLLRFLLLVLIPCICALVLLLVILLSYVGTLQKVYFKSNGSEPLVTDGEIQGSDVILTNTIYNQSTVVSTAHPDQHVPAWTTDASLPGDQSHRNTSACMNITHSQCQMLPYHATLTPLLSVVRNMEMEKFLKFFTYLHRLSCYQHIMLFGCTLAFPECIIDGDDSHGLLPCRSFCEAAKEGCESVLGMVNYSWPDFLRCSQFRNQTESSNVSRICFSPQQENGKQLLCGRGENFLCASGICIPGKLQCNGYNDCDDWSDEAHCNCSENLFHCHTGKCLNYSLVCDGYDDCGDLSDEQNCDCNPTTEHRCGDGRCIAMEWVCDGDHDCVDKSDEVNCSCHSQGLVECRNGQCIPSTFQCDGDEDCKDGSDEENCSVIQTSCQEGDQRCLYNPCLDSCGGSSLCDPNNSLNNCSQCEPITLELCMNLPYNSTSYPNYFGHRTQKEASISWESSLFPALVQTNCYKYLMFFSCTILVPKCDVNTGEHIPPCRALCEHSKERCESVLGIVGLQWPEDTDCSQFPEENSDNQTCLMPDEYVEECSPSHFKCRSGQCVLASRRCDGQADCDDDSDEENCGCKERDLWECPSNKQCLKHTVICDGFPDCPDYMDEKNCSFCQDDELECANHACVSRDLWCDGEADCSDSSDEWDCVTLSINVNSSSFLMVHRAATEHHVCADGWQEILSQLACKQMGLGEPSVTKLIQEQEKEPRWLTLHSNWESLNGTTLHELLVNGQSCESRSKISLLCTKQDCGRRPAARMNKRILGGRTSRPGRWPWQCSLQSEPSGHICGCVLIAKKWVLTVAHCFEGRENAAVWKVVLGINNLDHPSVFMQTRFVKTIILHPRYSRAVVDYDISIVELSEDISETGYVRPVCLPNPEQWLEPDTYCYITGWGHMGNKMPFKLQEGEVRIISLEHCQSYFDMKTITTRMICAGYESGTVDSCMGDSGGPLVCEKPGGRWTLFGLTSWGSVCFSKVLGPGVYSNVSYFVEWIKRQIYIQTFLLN
Description: (§1) Plasmids expressing human corin WT and mutants R801A, S985A, T555I, Q568P, T555I/Q568P, K317E, S472G and R539C were reported previously. Dong, N. et al., J Biol Chem 289, 17909-17916 (2014); Knappe et al., J Biol Chem 278, 52363-52370 (2003); Wu et al., J Biol Chem 277, 16900-16905. (2002). Plasmids expressing human PCSK1-9 were made by cloning respective cDNAs into pcNDA3.1 vector. Recombinant corin and PCSK proteins encoded by these plasmids contained a C-terminal V5 or flag tag for protein detection in Western blotting.
(§2) HEK293 and HL-1 cells were transfected with corin or PCSK6 expression plasmids. After 48-72 h, cells were lysed in a buffer containing 25 mM Tris-HCl, pH 7.4, 150 mM NaCl, 1 mM EDTA, 1% (v/v) NP-40, and 1% (v/v) protease inhibitor cocktail. Recombinant corin and PCSK6 proteins were immunoprecipitated with an anti-V5 or anti-flag antibody. Western blotting was carried out to analyze corin expression and activation or PCSK6 expression with or without reducing agents. Percentage of corin activation (corin-p vs. corin fragments) was quantified by densitometric analysis of Western blots.

corin mutant K317E = molecular target: T2, corin mutant K317E (Homo sapiens, UniProt Q9Y5Q5, K317E); assay: PCSK6-mediated corin activation in HEK293 cells, corin mutant K317E; assay type: cell-based; details: Western, densitometry
T2 construct: expressed in transfected cells; host or cells: HEK293
T2 sequence (Q9Y5Q5 1-1042 K317E): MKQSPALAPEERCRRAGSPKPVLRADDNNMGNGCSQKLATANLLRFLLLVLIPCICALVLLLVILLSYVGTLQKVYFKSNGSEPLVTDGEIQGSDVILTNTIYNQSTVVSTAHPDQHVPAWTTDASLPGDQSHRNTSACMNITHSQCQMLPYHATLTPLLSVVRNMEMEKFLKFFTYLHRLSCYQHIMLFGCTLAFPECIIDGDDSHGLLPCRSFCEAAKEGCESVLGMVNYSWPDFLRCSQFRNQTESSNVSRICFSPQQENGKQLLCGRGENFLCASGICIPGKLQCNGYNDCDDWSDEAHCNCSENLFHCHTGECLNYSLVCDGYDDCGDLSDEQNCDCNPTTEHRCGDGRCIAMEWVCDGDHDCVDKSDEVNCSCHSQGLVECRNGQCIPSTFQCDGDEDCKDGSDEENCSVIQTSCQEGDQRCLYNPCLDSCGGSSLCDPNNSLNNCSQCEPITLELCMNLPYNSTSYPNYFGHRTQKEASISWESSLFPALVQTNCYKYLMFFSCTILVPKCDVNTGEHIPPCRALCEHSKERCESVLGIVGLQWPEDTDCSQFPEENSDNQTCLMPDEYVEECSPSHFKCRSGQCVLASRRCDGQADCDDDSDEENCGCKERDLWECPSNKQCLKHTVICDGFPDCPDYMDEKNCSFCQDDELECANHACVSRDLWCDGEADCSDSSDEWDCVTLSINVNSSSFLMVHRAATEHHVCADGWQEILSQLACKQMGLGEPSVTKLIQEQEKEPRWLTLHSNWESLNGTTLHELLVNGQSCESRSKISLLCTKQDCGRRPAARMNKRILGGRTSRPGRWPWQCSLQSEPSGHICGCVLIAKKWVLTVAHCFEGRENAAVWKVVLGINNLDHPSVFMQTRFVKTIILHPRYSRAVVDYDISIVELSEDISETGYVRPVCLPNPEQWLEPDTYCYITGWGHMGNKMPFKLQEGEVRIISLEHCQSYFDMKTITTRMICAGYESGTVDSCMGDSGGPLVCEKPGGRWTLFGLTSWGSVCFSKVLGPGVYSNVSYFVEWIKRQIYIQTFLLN
Description: as §1, §2

PCSK6-mediated activation cleavage (corin WT): detected | reduction in PCSK6-mediated corin activation compared with WT corin (corin mutant K317E): 39%
B1: proprotein convertase subtilisin/kexin-6 (protein, listed as Homo sapiens)
chain: MPPRAPPAPGPRPPPRAAAATDTAAGAGGAGGAGGAGGPGFRPLAPRPWRWLLLLALPAACSAPPPRPVYTNHWAVQVLGGPAEADRVAAAHGYLNLGQIGNLEDYYHFYHSKTFKRSTLSSRGPHTFLRMDPQVKWLQQQEVKRRVKRQVRSDPQALYFNDPIWSNMWYLHCGDKNSRCRSEMNVQAAWKRGYTGKNVVVTILDDGIERNHPDLAPNYDSYASYDVNGNDYDPSPRYDASNENKHGTRCAGEVAASANNSYCIVGIAYNAKIGGIRMLDGDVTDVVEAKSLGIRPNYIDIYSASWGPDDDGKTVDGPGRLAKQAFEYGIKKGRQGLGSIFVWASGNGGREGDYCSCDGYTNSIYTISVSSATENGYKPWYLEECASTLATTYSSGAFYERKIVTTDLRQRCTDGHTGTSVSAPMVAGIIALALEANSQLTWRDVQHLLVKTSRPAHLKASDWKVNGAGHKVSHFYGFGLVDAEALVVEAKKWTAVPSQHMCVAASDKRPRSIPLVQVLRTTALTSACAEHSDQRVVYLEHVVVRTSISHPRRGDLQIYLVSPSGTKSQLLAKRLLDLSNEGFTNWEFMTVHCWGEKAEGQWTLEIQDLPSQVRNPEKQGKLKEWSLILYGTAEHPYHTFSAHQSRSRMLELSAPELEPPKAALSPSQVEVPEDEEDYTAQSTPGSANILQTSVCHPECGDKGCDGPNADQCLNCVHFSLGSVKTSRKCVSVCPLGYFGDTAARRCRRCHKGCETCSSRAATQCLSCRRGFYHHQEMNTCVTLCPAGFYADESQKNCLKCHPSCKKCVDEPEKCTVCKEGFSLARGSCIPDCEPGTYFDSELIRCGECHHTCGTCVGPGREECIHCAKNFHFHDWKCVPACGEGFYPEEMPGLPHKVCRRCDENCLSCAGSSRNCSRCKTGFTQLGTSCITNHTCSNADETFCEMVKSNRLCERKLFIQFCCRTCLLAG
modifications: C-terminal FLAG tag
